Patent publication US20150004162A1 (I2 PHARMACEUTICALS, published 2015)
Residue numbers refer to the chain shown, from its start. Values belong to the binder of their own block, whether it stands above or below them.

What was measured:
DR4 on Ramos cells = target: T1, DR4 on Ramos cells (human, UniProt O00220 24-468); assay: cell-based or functional assay
T1 sequence (looked up): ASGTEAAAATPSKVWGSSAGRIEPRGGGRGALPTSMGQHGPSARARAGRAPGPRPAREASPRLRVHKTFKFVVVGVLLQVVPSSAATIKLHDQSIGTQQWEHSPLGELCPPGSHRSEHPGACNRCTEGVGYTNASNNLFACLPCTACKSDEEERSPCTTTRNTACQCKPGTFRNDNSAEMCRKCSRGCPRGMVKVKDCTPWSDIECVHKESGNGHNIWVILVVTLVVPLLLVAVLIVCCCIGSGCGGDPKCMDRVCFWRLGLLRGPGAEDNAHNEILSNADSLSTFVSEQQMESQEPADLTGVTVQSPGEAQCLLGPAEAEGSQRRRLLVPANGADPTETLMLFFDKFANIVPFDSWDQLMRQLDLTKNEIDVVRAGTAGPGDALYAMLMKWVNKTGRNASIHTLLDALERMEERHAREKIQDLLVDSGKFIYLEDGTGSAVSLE

human DR4 [1] = target: T2, human DR4 (human, UniProt O00220 24-239, limits assumed); assay: antigen ELISA, half-log dilutions on coated human DR4, anti-human Fc-HRP
T2 construct: Recombinant DR4 coated on ELISA wells; also called death receptor 4; TRAIL-R1
T2 sequence: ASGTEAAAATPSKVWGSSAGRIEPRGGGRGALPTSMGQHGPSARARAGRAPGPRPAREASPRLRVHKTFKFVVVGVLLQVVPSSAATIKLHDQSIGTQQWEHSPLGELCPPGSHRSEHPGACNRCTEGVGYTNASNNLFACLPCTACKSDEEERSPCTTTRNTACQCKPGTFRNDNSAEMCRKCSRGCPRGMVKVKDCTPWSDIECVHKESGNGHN
Description: (§1) The bivalent SBP were detected using an anti-human Fc antibody conjugated to HRP.

human DR5 [2] = target: T3, human DR5 (human, UniProt O14763 52-183, limits assumed); assay: antigen ELISA, half-log dilutions on coated human DR5, anti-human Fc-HRP
T3 construct: also called sDR5 (Peprotech); death receptor 5
Description: as §1

DcR1 = target: T4, DcR1 (human, UniProt O14798 24-159, limits assumed); assay: ELISA, bivalent SBP on TRAIL receptor family proteins [C]
T4 construct: Recombinant protein coated on wells; also called decoy receptor DcR1
T4 sequence: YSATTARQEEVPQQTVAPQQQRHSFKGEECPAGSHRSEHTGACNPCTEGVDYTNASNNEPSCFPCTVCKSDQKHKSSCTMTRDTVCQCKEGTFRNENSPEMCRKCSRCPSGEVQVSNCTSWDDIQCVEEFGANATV
Description: as §1

DcR2 = target: T5, DcR2 (human, UniProt Q9UBN6 56-189, limits assumed); assay: as above
T5 construct: Recombinant protein coated on wells; also called decoy receptor DcR2
T5 sequence: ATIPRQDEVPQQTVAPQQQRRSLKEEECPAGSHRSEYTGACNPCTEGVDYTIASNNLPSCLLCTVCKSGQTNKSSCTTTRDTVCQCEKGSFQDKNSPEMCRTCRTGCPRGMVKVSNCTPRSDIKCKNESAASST
Description: as §1

mouse DR5-Fc = target: T6, mouse DR5-Fc (mouse, UniProt Q9QZM4 53-177, limits assumed); assay: ELISA, 100 ng/well mouse DR5-Fc, 10 nM bivalent SBP, detection HRP-aVpreB
T6 construct: also called mouse death receptor; not shown: Fc part
T6 sequence (looked up): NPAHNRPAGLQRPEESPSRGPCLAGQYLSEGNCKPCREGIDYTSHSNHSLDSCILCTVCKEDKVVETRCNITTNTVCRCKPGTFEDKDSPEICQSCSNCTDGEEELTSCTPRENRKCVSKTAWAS

human DR4 [3] = target: T2, human DR4; assay: ELISA, half-log dilutions on wells coated with 1 microgram/ml human DR4, anti-human Fc HRP
Description: as §1

human DR5 [4] = target: T3, human DR5; assay: ELISA, half-log dilutions on wells coated with 1 microgram/ml human DR5, anti-human Fc HRP
Description: as §1

Rhesus (NHP-2) DR5-Fc = target: T7, Rhesus (NHP-2) DR5-Fc (Rhesus); assay: ELISA, wells coated with 1 microgram/ml antigen, half-log dilutions, detection with anti-VpreB-HRP; inset table has no row label, the text calls the values half-maximal binding concentrations; unit from the axis Log[Agent] (nM) [panel D]
T7 construct: also called Rhesus DR5-Fc
Description: (§2) Streptavidin-HRP or a monoclonal anti-VpreB-HRP conjugated antibody was used for detection and the assay developed with a TMB solution.

[5] = target: T8, Cynomolgus (NHP-1) DR4-Fc (Cynomolgus); assay: ELISA, wells coated with 1 microgram/ml antigen, half-log dilutions of SgG, detection with anti-VpreB-HRP; unit taken from the axis Lg(nM) [panel A]
T8 construct: also called Cynomolgus DR4-Fc
Description: as §2

[6] = target: T9, Cynomolgus (NHP-1) DR5-Fc (Cynomolgus); assay: ELISA, wells coated with 1 microgram/ml antigen, half-log dilutions of SgG, detection with anti-VpreB-HRP; unit taken from the axis Lg(nM) [panel B]
T9 construct: also called Cynomolgus DR5-Fc
Description: as §2

Rhesus (NHP-2) DR4-Fc = target: T10, Rhesus (NHP-2) DR4-Fc (Rhesus, UniProt F6TP00 24-239); assay: ELISA, wells coated with 1 microgram/ml antigen, half-log dilutions, detection with anti-VpreB-HRP; inset table has no row label, the text calls the values half-maximal binding concentrations; unit from the axis Log[Agent] (nM) [panel C]
T10 construct: also called Rhesus DR4-Fc
T10 sequence: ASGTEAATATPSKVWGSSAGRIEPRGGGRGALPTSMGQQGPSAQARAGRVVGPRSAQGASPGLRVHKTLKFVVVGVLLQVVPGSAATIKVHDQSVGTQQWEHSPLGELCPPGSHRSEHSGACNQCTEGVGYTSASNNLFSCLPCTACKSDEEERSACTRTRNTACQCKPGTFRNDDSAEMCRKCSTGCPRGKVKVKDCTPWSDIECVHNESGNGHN
Description: as §2

T3 sequence (O14763 other isoform, or with tags, fused parts or gaps limits assumed): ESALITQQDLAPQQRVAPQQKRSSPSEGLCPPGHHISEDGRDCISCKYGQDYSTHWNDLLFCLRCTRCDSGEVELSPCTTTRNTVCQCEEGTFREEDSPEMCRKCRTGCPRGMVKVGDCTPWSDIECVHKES

EC50 (nM), inhibition of Ramos cell proliferation (WST-1), SgG cross-linked with anti-human-Fc antibody or Protein G (DR4 on Ramos cells): 0.498 nM
EC50 (human DR4 [1]): ~0.03 nM
EC50 (human DR5 [2]): 0.05 nM
binding result (DcR1): no binding (tested: 1000 nM)
binding result (DcR2): no binding (tested: 1000 nM)
binding result (mouse DR5-Fc): no binding (tested: 10 nM)
EC50 (human DR4 [3]): 0.0298 nM
EC50 (human DR5 [4]): 0.0502 nM
EC50 (Rhesus (NHP-2) DR5-Fc): 0.627 nM
B1: 3631-G09 bivalent SBP (other)
VH: EVQLVESGGGLVKPGGSLRLSCAASGFTFSTYGMHWVRQAPGKGLEWVAGINYSGNNKYYADSVKGRFTISRDNAKNSLYLQMNSLRAEDTAVYYCARDHSTWLSRHLDYWGQGTLVTVSS
surrogate light: QPVLHQPPAMSSALGTTIRLTCTLRNDHDIGVYSVYWYQQRPGHPPRFLLRYFSQSDKSQGPQVPPRFSGSKDVARNRGYLSISELQPEDEAMYYCAMGARSSVTHVFGSGTQLTVLSQPKATPSVTLFPPSSEELQANKATLVCLMNDFYPGILTVTWKADGTPITQGVEMTTPSKQSNNKYAASSYLSLTPEQWRSRRSYSCQVMHEGSTVEKTVAPAECS
notes: IgG1-like surroglobulin: full length heavy chain paired with surrogate light chain fusion 1, made in HEK293, Protein A purified; also called SL231; SL-231; copies: 2 + 2

EC50 [5]: 6.36 nM
EC50 [6]: 0.273 nM
EC50 (Rhesus (NHP-2) DR4-Fc): 146 nM
EC50 (Rhesus (NHP-2) DR5-Fc): 0.294 nM
B2: 3706-A02 (SL466) (other)
VH: B1 VH with H100S, W103T, L104R, S105T, H107A
light: B1 surrogate light
notes: Bivalent SBP (SgG); also called SgG
